Laboratory results taken from patent publication US20240352438A1, “MEANS AND METHODS FOR DETOXIFYING OCHRATOXIN A” (DSM Austria GmbH, priority 2021, published 2024).
Substitutions are numbered along the chain they refer to.

B1: 282 (protein)
chain: MTTRTRILTAFLSLLAANACAADAAPAAPHTVVLRAARMFDGASGKLVDHPQLTIVGNKIVRIAQGDKAEVPAGAEVVDLGDATLLPGFIDAHVHLSGQSSDNWYGDFFDNMMRFPAEQALYGAYYARITLEAGFTSVRDVGSTDWVALGLRNAIDAGKVPGPRMLVSNYAVGSTGGHADQDPIPPHKLPLAGPLQGVCNGPEECRAAVRYQIKYGANVIKFMPSGGVLSLSDPADAPELSQDEMNAVIGESHAWGRKVAAHAHGDKAAKMAVAAGVDSIEHGSFIEDDTLRAMKAKNVYLVPTISAIAHVEEKIGTFPPVIAEKGRAAAAHLRQTFRHAVQIGVPIALGTDAGVGAHGSNAREFRYMVENGLTPAQALLAGTANAARLLGTFDRVGTLEAGKLADVVAVPGNPIADITVTERPLFVMKDGVVVRRDAVR
modifications: exemplary polypeptide
B2: 296 (protein)
chain: B1 chain with A235V, I308V, G356Y
modifications: exemplary polypeptide
B3: 285 (protein)
chain: B1 chain with A235L
modifications: exemplary polypeptide
B4: 299 (protein)
chain: B1 chain with A235V, H310D, V355L
modifications: exemplary polypeptide
B5: 295 (protein)
chain: B1 chain with A235V, I308V, G356P
modifications: exemplary polypeptide
B6: 287 (protein)
chain: B1 chain with L229I, A235V, I308A
modifications: exemplary polypeptide
B7: 286 (protein)
chain: B1 chain with L231E, A235V, V321T
modifications: exemplary polypeptide
B8: 284 (protein)
chain: B1 chain with A235F
modifications: exemplary polypeptide
B9: 292 (protein)
chain: B1 chain with L229I, A235V, I308V
modifications: exemplary polypeptide
B10: 291 (protein)
chain: B1 chain with A235V, I308A, G356Y
modifications: exemplary polypeptide
B11: 290 (protein)
chain: B1 chain with A235V, I308A, G356P
modifications: exemplary polypeptide
B12: 304 (protein)
chain: B1 chain with I184V, A192L, A235V
modifications: exemplary polypeptide
B13: 297 (protein)
chain: B1 chain with A235V, G354A, G356V
modifications: exemplary polypeptide
B14: 301 (protein)
chain: B1 chain with A235V, V311A, V355L
modifications: exemplary polypeptide
B15: 303 (protein)
chain: B1 chain with A235V, V355L, G356P
modifications: exemplary polypeptide
B16: 288 (protein)
chain: B1 chain with A235V, I308A, A329V
modifications: exemplary polypeptide
B17: 289 (protein)
chain: B1 chain with A235V, I308A, G356F
modifications: exemplary polypeptide
B18: 300 (protein)
chain: B1 chain with A235V, H310E, V355L
modifications: exemplary polypeptide
B19: 294 (protein)
chain: B1 chain with A235V, I308V, G356F
modifications: exemplary polypeptide

assay: Enzymatic activity comparison: activity remaining after 65° C. for 10 min at pH 6.0, relative to SEQ ID NO: 1; type: physicochemical; conditions: not given
Method: To compare the temperature behavior and thermostability of selected enzymes to one another, enzyme was incubated at 65° C. for 10 min at pH 6.0. The enzymatic activity remaining after incubation was compared to the remaining activity of the enzyme of SEQ ID NO: 1 after incubation, the latter being set to 100%, see Table 16.

In order of falling “Enzymatic activity remaining after incubation, compared to SEQ ID NO: 1 (set to 100%)” value:
1. B16  90%
2. B3  63%
3. B12  63%
4. B17  63%
5. B15  56%
6. B11  53%
7. B2  43%
8. B5  41%
9. B19  36%
10. B14  35%
11. B10  34%
12. B7  33%
13. B13  32%
14. B18  31%
15. B1  28%
16. B6  28%
17. B4  27%
18. B9  21%
19. B8  13%

assay: OTA detoxification activity assay (specific activity, fluorescence reduction ex/em 390/450 nm); type: biochemical; conditions: pH 6.0; SEQ ID NO: 1 = 100%
Method in brief: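 Recombinant enzyme preparation with 200 ng/mL OTA in 100 mM sodium phosphate, at pH 6.0 and pH 7.5, 37° C. Degradation followed as the fall in fluorescence at ex/em 390/450 nm. Specific activity taken from the initial linear slope; one unit degrades 1 μmol OTA per min at a starting OTA of […].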

In order of rising “Specific OTA detoxification activities in % compared to the enzyme of SEQ ID NO: 1, pH 6.0” value:
1. B12  25%
2. B3  28%
3. B16  29%
4. B19  31%
5. B7  39%
6. B2  42%
7. B8  48%
8. B14  55%
9. B17  66%
10. B1  77%
11. B9  77%
12. B10  77%
13. B5  95%
14. B6  151%
15. B18  152%
16. B4  156%
17. B11  160%
18. B15  167%
19. B13  182%

same assay, conditions: pH 7.5; SEQ ID NO: 1 = 100%

In order of falling “Specific OTA detoxification activities in % compared to the enzyme of SEQ ID NO: 1, pH 7.5” value:
1. B11  122%
2. B5  110%
3. B15  110%
4. B13  106%
5. B17  106%
6. B6  105%
7. B18  103%
8. B4  95%
9. B9  81%
10. B10  79%
11. B14  43%
12. B19  42%
13. B1  41%
14. B2  38%
15. B16  31%
16. B12  24%
17. B8  23%
18. B3  21%
19. B7  17%
